Measured values from publication doi:10.1101/2023.10.06.561269 (bioRxiv, 2023).

B1: V. cholerae FtsX (natural protein)
chain: MAVKPGNQKISKTTKSTKSKPRDVKRAKTDSFLAIHFKQAKASFAALWRRPLGNILTLAVISMALALPASLYLLSKNIASVAERVAEPSQLSVYLHIDTPEPRIIVLKDDLERRDEIAKVKYISPQQGLDDLSQYAGFEQAISLLDNATLPAVLVVTPKVDSREQIQTLAKALQAEEGVTDVRMDEDWFARLDAIRHLATIVVISLSSLMLMSVFLIVGNTLRFNVQANKEEIQTMKLIGATDAYILRPYLYSGMWFGLLGAVAAWLLTALMTILLNGAVEALAQLYDSRFRLIGLGWDESLLLLMLGVFLGCVAAKVSAKRHLKEIEPV
B2: V. cholerae FtsE (natural protein)
chain: MIRFQQVSKAYRGGRQALQKVDFHLRRGEMAFLGGHSGAGKSTLLKLICAIERPTDGKISFNGHDITRIPNKDIPFLRRNIGIVFQDHRLLMDRSIYDNVALPMRIESISENEIKRRVSAALDKTGLLDKARCLPSQLSGGEQQRVGIARAVVNRPTLLLADEPTGNLDPELSSRVLRLFEEFNRAGVTILLATHDIHLVNSRPQYRHLELNQGFLSEVADYGR

Molecular target: the molecule itself
Assay: cryo-EM structure

Protein | stoichiometry N
B1 | 2
B2 | 2
